Target: coagulation factor Xa (FXa) (UniProt P00742;P00742 P00742:41-179,P00742:235-488)
Sequence (P00742 41-179, chain 1 of 2): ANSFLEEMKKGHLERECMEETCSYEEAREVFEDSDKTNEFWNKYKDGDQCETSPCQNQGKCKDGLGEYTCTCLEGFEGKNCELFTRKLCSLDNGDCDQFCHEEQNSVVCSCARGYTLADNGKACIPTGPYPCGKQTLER
Sequence (P00742 235-488, chain 2 of 2): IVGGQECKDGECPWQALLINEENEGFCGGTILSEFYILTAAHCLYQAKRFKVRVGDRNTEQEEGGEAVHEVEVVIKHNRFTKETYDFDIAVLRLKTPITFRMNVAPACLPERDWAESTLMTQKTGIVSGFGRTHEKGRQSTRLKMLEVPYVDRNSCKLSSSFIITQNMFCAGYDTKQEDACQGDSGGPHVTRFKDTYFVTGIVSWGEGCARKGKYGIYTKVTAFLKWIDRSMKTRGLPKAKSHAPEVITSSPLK

B1: E9-9 (ssRNA)
RNA: GGGAGAGAGGAAGAGGGAUGGGCCAGAACACCAGUGAACCCCCCAGCCCCUUCUCACCAGAUCAUAACCCAGAGGUCGAU
Q: How did the Kd turn out when B1 was run?
A: 52.8 nM

B2: D4-7 (ssRNA)
RNA: GGGAGAGAGGAAGAGGGAUGGGAUAAUAGCCCCAGCGAGAUAAUACUUGGCCCCGCUACUAACAUAACCCAGAGGUCGAU
Q: Does B2 bind?
A: binds

B3: D7-6 (ssRNA)
RNA: GGGAGAGAGGAAGAGGGAUGGGAAAAUAGCCCCAGCGAGAUAAUACUUGGCCCCGCUAGCACCAUAACCCAGAGGUCGAU
Q: B3 was tested. Which Kd did it give?
A: 3.8 nM

B4: E10-12 (ssRNA)
RNA: GGGAGAGAGGAAGAGGGAUGGGAAAAUAGCCCCAGCGAGAUAAUACUUGGCCCCGCGAACACCAUAACCCAGAGGUCGAU
Q: With B4 as the binder, how does the Kd read?
A: 11.7 nM

B5: D6-2 (ssRNA)
RNA: GGGAGAGAGGAAGAGGGAUGGGAAAAUAGCCCCAGCGAGAUAAUACUUGGCCCCGCUACAACCAUAACCCAGAGGUCGAU
Q: With B5 as the binder, how does the Kd read?
A: 4.6 nM

B6: F11-8 (ssRNA)
RNA: GGGAGAGAGGAAGAGGGAUGGGAGAUUAGCCCCAGCGAGAUAAUACUUGGCCCCGCUACUACCAUAACCCAGAGGUCGAU
Q: With B6 as the binder, how does the Kd read?
A: 2.2 nM

B7: D7-2 (ssRNA)
RNA: GGGAGAGAGGAAGAGGGAUGGGAGAAUAGCCCCAGCGAGAUAAUACUUGGCCCCGCUAAUACCAUAACCCAGAGGUCGAU
Q: B7 was tested. Which Kd did it give?
A: 8.1 nM

B8: F11-7 (ssRNA)
RNA: GGGAGAGAGGAAGAGGGAUGGGAAAAUAGCCCCAGCGAGAUAAUACUUGGCCCCGCUAUUACCAUAACCCAGAGGUCGAU
Q: How did the Kd turn out when B8 was run?
A: 3.6 nM

B9: D7-9 (ssRNA)
RNA: GGGAGAGAGGAAGAGGGAUGGGUAAAUAGCCCCAGCGAGAUUCUACUUGGCCCCGCUACUACCAUAACCCAGAGGUCGAU
Q: For B9, which Kd is on record?
A: 2.63 nM

B10: D7-1 (ssRNA)
RNA: GGGAGAGAGGAAGAGGGAUGGGAGAAUGGCCCCAGCGAGAUUAUACUUGGCCCCGCCAAUACCAUAACCCAGAGGUCGAU
Q: B10 was tested. Which Kd did it give?
A: 4.7 nM

B11: D6-10 (ssRNA)
RNA: GGGAGAGAGGAAGAGGGAUGGGCAGAUAGCCACAGCGAGAUCAUACUUGGCCCCGCUACUACCAUAACCCAGAGGUCGAU
Q: For B11, which Kd is on record?
A: 18.7 nM

B12: D4-3 (ssRNA)
RNA: GGGAGAGAGGAAGAGGGAUGGGUAAAUAGCCCCAGCGAGAUAAUACUUGGCCCCGCAACUACCAUAACCCAGAGGUCGAU
Q: B12 was tested. Which Kd did it give?
A: 65.5 nM

B13: D6-7 (ssRNA)
RNA: GGGAGAGAGGAAGAGGGAUGGGUGCAUAGCCCCAGCGAGAUAAUACUUGGCCCCGCUACAACCAUAACCCAGAGGUCGAU
Q: B13 was tested. Which Kd did it give?
A: 13.2 nM

B14: D6-3 (ssRNA)
RNA: GGGAGAGAGGAAGAGGGAUGGGAAAAUAGCCCCAGCGAGAUAAUACUUGGCCCCGCUGUUACCAUAACCCAGAGGUCGAU
Q: B14 was tested. Which Kd did it give?
A: 5.9 nM

B15: D7-5 (ssRNA)
RNA: GGGAGAGAGGAAGAGGGAUGGGAAACUAGCCUCAGCGAGAUAAUACUUGGCCCCGCUACUACCAUAACCCAGAGGUCGAU
Q: B15 was tested. Which Kd did it give?
A: 26.1 nM

B16: D7-4 (ssRNA)
RNA: GGGAGAGAGGAAGAGGGAUGGGAGAAUAGCCCCAGCGAGAUCGUACUUGGCCCCGCUAGUACCAUAACCCAGAGGUCGAU
Q: With B16 as the binder, how does the Kd read?
A: 39.3 nM

B17: D4-5 (ssRNA)
RNA: GGGAGAGAGGAAGAGGGAUGGGAGAAUAGCCCCAGCGAGAUAAUCCUUGGCCCCGCUACUGCCAUAACCCAGAGGUCGAU
Q: Which Kd does the source give for B17 here?
A: 21.7 nM

B18: D8-1 (ssRNA)
RNA: GGGAGAGAGGAAGAGGGAUGGGAAAAUAGCCCCAGCGAGAUGAUACUUGGCCCCGCUAAUACCAUAACCCAGAGGUCGAU
Q: With B18 as the binder, how does the Kd read?
A: 4.8 nM

B19: D6-9 (ssRNA)
RNA: GGGAGAGAGGAAGAGGGAUGGGAAAUUUGCCCCAGCGAGAUAAUACUUGGCCCCGCAACUACCAUAACCCAGAGGUCGAU
Q: How did the Kd turn out when B19 was run?
A: 6.5 nM

B20: E10-8 (ssRNA)
RNA: GGGAGAGAGGAAGAGGGAUGGGCCAAAAGCGGACUGAAGACGUGUUUCCCCCAUCUCCGUGACAUAACCCAGAGGUCGAU
Q: How did the Kd turn out when B20 was run?
A: 28.4 nM

B21: E10-11 (ssRNA)
RNA: GGGAGAGAGGAAGAGGGAUGGGCCAGAAGCGCUCACUACAACGUUGAACCCCCCGUCCACACCAUAACCCAGAGGUCGAU
Q: Which Kd does the source give for B21 here?
A: 27.1 nM

B22: F11-6 (ssRNA)
RNA: GGGAGAGAGGAAGAGGGAUGGGCCAGCAACGUCACACGAACGGAAUACCCCCCAUUGAAAACCAUAACCCAGAGGUCGAU
Q: With B22 as the binder, how does the Kd read?
A: 33.6 nM

B23: E9-2 (ssRNA)
RNA: GGGAGAGAGGAAGAGGGAUGGGAUACCGAGCACGCAAAACACACAAUGCCCAAGCAGGACUCAUAACCCAGAGGUCGAU
Q: Which Kd does the source give for B23 here?
A: 58.6 nM

B24: E9-3 (ssRNA)
RNA: GGGAGAGAGGAAGAGGGAUGGGCCAAAAGCGCAUACACCUGCGUGUUUCCCCCGCCAACAGUCAUAACCCAGAGGUCGAU
Q: For B24, which Kd is on record?
A: 46.5 nM

B25: D7-7 (ssRNA)
RNA: GGGAGAGAGGAAGAGGGAUGGGAGAAUACGCCUAGCGAGAAGAUACUUGGCCCCCGUGCAACCAUAACCCAGAGGUCGAU
Q: B25 was tested. Which Kd did it give?
A: 5.8 nM

B26: E10-4 (ssRNA)
RNA: GGGAGAGAGGAAGAGGGAUGGGUCUUAGAUAUAGAACUCCGAGAGGACUGACCGUACAGAACCAUAACCCAGAGGUCGAU
Q: For B26, which Kd is on record?
A: 37.4 nM

B27: E9-5 (ssRNA)
RNA: GGGAGAGAGGAAGAGGGAUGGGCCAGAAGCGACACUAACGCUGAACCCCCCAGUCCCUUCACGUGCAUAACCCAGAGGUCGAU
Q: Which Kd does the source give for B27 here?
A: 53.5 nM

B28: D6-4 (ssRNA)
RNA: GGGAGAGAGGAAGAGGGAUGGGAAAUUUGCCCUAGCGAGAUUAUACUUGGCCCCGCGAAAAACCAUAACCCAGAGGUCGAU
Q: For B28, which Kd is on record?
A: 8.5 nM

B29: E9-8 (ssRNA)
RNA: GGGAGAGAGGAAGAGGGAUGGGCCAGAAGGAACUAAACACCUGAACCCCCCAUCGCGAGAGACAUAACCCAGAGGUCGAU
Q: Which Kd does the source give for B29 here?
A: 29.8 nM

Q: GAGAGCCCCAGCGAGAUAAUACUUGGCCCCGCUCUU (ssRNA) [11.F7t] was tested. Which Kd did it give?
A: ~1.5 nM

B30: E9-4 (ssRNA)
RNA: GGGAGAGAGGAAGAGGGAUGGGAGCCCGAGAAAAUAACGCGUUCCACCAUACUACUAAGCCAUAACCCAGAGGUCGAU
Q: For B30, which Kd is on record?
A: 65 nM

Source: patent publication US20030175703, “RNA aptamers and methods for identifying the same” (published 2003)
